Assays:
[1] = biological target: hCG (LH/CG) receptor of MA-10 transformed murine Leydig cells (murine, UniProt P30730 27-700); experiment: cell-based or functional assay
[2] = biological target: human TSH receptor (CHO-JP09 cells) (human, UniProt P16473 21-764); experiment: cell-based or functional assay

Sequence of hCG (LH/CG) receptor of MA-10 transformed murine Leydig cells (P30730 27-700): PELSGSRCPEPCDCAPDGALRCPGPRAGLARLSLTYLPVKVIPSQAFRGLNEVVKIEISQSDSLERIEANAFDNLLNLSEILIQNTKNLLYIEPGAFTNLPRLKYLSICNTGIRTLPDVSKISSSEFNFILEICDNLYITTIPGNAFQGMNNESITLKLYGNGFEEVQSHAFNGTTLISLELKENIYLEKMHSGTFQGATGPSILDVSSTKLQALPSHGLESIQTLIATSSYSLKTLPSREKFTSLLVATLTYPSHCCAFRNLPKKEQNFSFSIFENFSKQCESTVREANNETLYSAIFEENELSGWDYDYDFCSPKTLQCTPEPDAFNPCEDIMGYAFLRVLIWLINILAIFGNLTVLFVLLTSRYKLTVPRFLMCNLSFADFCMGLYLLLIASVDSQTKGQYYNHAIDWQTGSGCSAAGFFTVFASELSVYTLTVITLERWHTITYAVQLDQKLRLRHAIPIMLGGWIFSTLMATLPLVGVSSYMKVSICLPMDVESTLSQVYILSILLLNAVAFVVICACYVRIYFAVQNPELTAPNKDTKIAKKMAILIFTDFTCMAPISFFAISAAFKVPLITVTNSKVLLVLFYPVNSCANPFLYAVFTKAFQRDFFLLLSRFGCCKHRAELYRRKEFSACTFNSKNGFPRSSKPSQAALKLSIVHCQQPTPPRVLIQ

Binder	Progesterone synthesis in MA10 cells, EC50 [1] [ng/mL]	Progesterone synthesis in MA10 cells, Max (%) [1]	cAMP stimulation in JP09 cells, EC50 [2] [ng/mL]	cAMP stimulation in JP09 cells, Relative potency (WT = 1) [2]
wild-type human chorionic gonadotropin (ligand) chain 1: not shown chain 2: SKEPLRPRCRPINATLAVEKEGCPVCITVNTTICAGYCPTMTRVLQGVLPALPQVVCNYRDVRFESIRLPGCPRGVNPVVSYAVALSCQCALCRRSTTDCGGPKDHPLTCDDPRFQDSSSSKAPPPSLPSPSRLPGPSDTPILPQ	6.9	100 % of WT-hCG		
wild-type human thyroid stimulating hormone (ligand) chain 1: not shown chain 2: FCIPTEYTMHIERRECAYCLTINTTICAGYCMTRDINGKLFLPKYALSQDVCTYRDFIYRTVEIPGCPLHVAPYFSYPVALSCKCGKCNTDYSDCIHEAIKTNYCTKPQKSY			6.7	1 fold (WT = 1)

— patent US7070788 (US Dept. of Health and Human Services, dated 2006)
